Measured values as given in the supplement of paper PMC11246515.
± gives the standard deviation of the averaged measurements.

Assay: total protein half-life in vivo (active degradation + dilution); higher = more stable protein
[1] = E. coli NCM3722 delta-clpP delta-lon delta-hslV, growth: N-lim chemostat, doubling time 6 h
[2] = E. coli NCM3722 delta-clpP, growth: N-lim chemostat, doubling time 6 h
[3] = E. coli NCM3722 delta-hslV, growth: N-lim chemostat, doubling time 6 h
[4] = E. coli NCM3722 delta-lon, growth: N-lim chemostat, doubling time 6 h
[5] = E. coli NCM3722 delta-smpB, growth: N-lim chemostat, doubling time 6 h
[6] = wild type E. coli NCM3722, growth: C-lim chemostat, doubling time 6 h
[7] = wild type E. coli NCM3722, growth: C-lim chemostat, doubling time 12 h
[8] = wild type E. coli NCM3722, growth: N-lim chemostat, doubling time 6 h
[9] = wild type E. coli NCM3722, growth: N-lim chemostat, doubling time 12 h
[10] = wild type E. coli NCM3722, growth: P-lim chemostat, doubling time 12 h
[11] = wild type E. coli NCM3722, growth: C-lim chemostat, doubling time 3 h
[12] = wild type E. coli NCM3722, growth: P-lim chemostat, doubling time 6 h

Sequence	total protein half-life in vivo [1] [h]	total protein half-life in vivo [2] [h]	total protein half-life in vivo [3] [h]	total protein half-life in vivo [4] [h]	total protein half-life in vivo [5] [h]	total protein half-life in vivo [6] [h]	total protein half-life in vivo [7] [h]	total protein half-life in vivo [8] [h]	total protein half-life in vivo [9] [h]	total protein half-life in vivo [10] [h]	total protein half-life in vivo [11] [h]	total protein half-life in vivo [12] [h]
MKRQKRDRLERAHQRGYQAGIAGRSKEMCPYQTLNQRSQWLGGWREAMADRVVMA [P0AFW2]	0.535	0.588	0.382	0.441	0.472 ± 0.2	0.0712	0.0514 ± 0.073	0.352	0.686 ± 0.26	1.16		
MKINQPAVAGTLESGDVMIRIAPLDTQDIDLQINSSVEKQFGDAIRTTILDVLARYNVRGVQLNVDDKGALDCILRARLEALLARASGIPALPWEDCQ					1.09							
MIRQRRRALTPEQQQEMGQQAATRMMTYPPVVMAHTVAVFLSFDGELDTQPLIEQLWRAGKRVYLPVLHPFSAGNLLFLNYHPQSELVMNRLKIHEPKLDVRDVLPLSRLDVLITPLVAFDEYGQRLGMGGGFYDRTLQNWQHYKTQPVGYAHDCQLVEKLPVEEWDIPLPAVVTPSKVWEW [P0AC28]	4.93 ± 0.7	3.88 ± 0.18		2.6 ± 0.54	2.58	4.81 ± 0.41	7.66 ± 1.6	2.59	4.35	7.8 ± 0.34	2.75 ± 0.068	3.85 ± 0.24
MIPVERRQIILEMVAEKGIVSIAELTDRMNVSHMTIRRDLQKLEQQGAVVLVSGGVQSPGRVAHEPSHQVKTALAMTQKAAIGKLAASLVQPGSCIYLDAGTTTLAIAQHLIHMESLTVVTNDFVIADYLLDNSNCTIIHTGGAVCRENRSCVGEAAATMLRSLMIDQAFISASSWSVRGISTPAEDKVTVKRAIASASRQRVLVCDATKYGQVATWLALPLSEFDQIITDDGLPESASRALVKQDLSLLVAKNE	5.5397 ± 0.0019	4.93 ± 0.35	4.72 ± 0.089		4.76 ± 0.23	5.33 ± 0.07	8.85 ± 0.59	4.82 ± 0.13	8.78 ± 0.59	9.046 ± 0.035	2.62 ± 0.12	4.69 ± 0.52
MARFVVLVIDSFGVGAMKDVTLVRPQDAGANTCGHILSQLPHLQLPTLETLGLINALGYAPGDMQPSDSATWGVAELQHEGGDTFMGHQEILGTRPLPPLRMPFRDVIDRVEQALVSAGWQVERRGDDLQFLWVNQAVAIGDNLEADLGQVYNITANLSVISFDDAIKIGRIVREQVQVGRVITFGGLLTDSQRILDAAESKEGRFIGINAPRSGAYDNGFQVVHMGYGVDEKVQVPQKLYEAGVPTVLVGKVADIVNNPYGVSWQNLVDSQRIMDITLNEFNTHPTAFICTNIQETDLAGHAEDVARYAERLQVVDRNLARLVEAMQPDDCLVVMADHGNDPTIGHSHHTREVVPVLVYQQGMIATQLGVRTTLSDVGATVCEFFRAPPPQNGRSFLSSLRFAGDTL	4.67											
MAISTPMLVTFCVYIFGMILIGFIAWRSTKNFDDYILGGRSLGPFVTALSAGASDMSGWLLMGLPGAVFLSGISESWIAIGLTLGAWINWKLVAGRLRVHTEYNNNALTLPDYFTGRFEDKSRILRIISALVILLFFTIYCASGIVAGARLFESTFGMSYETALWAGAAATILYTFIGGFLAVSWTDTVQASLMIFALILTPVIVIISVGGFGDSLEVIKQKSIENVDMLKGLNFVAIISLMGWGLGYFGQPHILARFMAADSHHSIVHARRISMTWMILCLAGAVAVGFFGIAYFNDHPALAGAVNQNAERVFIELAQILFNPWIAGILLSAILAAVMSTLSCQLLVCSSAITEDLYKAFLRKHASQKELVWVGRVMVLVVALVAIALAANPENRVLGLVSYAWAGFGAAFGPVVLFSVMWSRMTRNGALAGMIIGALTVIVWKQFGWLGLYEIIPGFIFGSIGIVVFSLLGKAPSAAMQKRFAEADAHYHSAPPSRLQES	5.44 ± 0.019	4.61 ± 0.21	4.68 ± 0.42	4.66	4.592 ± 0.044	5.52 ± 0.072	9.72 ± 1.1		7.25 ± 1.6	10.6 ± 0.28	3.51 ± 0.45	5.18 ± 0.42
MKKLALILFMGTLVSFYADAGRKPCSGSKGGISHCTAGGKFVCNDGSISASKKTCTN [P0ACW4]						4.49	4.67				0.862	
MLYIFDLGNVIVDIDFNRVLGAWSDLTRIPLASLKKSFHMGEAFHQHERGEISDEAFAEALCHEMALPLSYEQFSHGWQAVFVALRPEVIAIMHKLREQGHRVVVLSNTNRLHTTFWPEEYPEIRDAADHIYLSQDLGMRKPEARIYQHVLQAEGFSPSDTVFFDDNADNIEGANQLGITSILVKDKTTIPDYFAKVLC [P0A8Y3]		5.75 ± 1.6	3.94 ± 0.21	5 ± 0.69	4.212 ± 0.04	6.31 ± 0.65	9.46 ± 0.36	4.14 ± 0.74	6.16 ± 0.12	9.4 ± 0.48	2.92 ± 0.13	5.18 ± 0.06
MIRKSATGVIVALAVIWGGGTWYTGTQIQPGVEKFIKDFNDAKKKGEHAYDMTLSYQNFDKGFFNSRFQMQMTFDNGAPDLNIKPGQKVVFDVDVEHGPLPITMLMHGNVIPALAAAKVNLVNNELTQPLFIAAKNKSPVEATLRFAFGGSFSTTLDVAPAEYGKFSFGEGQFTFNGDGSSLSNLDIEGKVEDIVLQLSPMNKVTAKSFTIDSLARLEEKKFPVGESESKFNQINIINHGEDVAQIDAFVAKTRLDRVKDKDYINVNLTYELDKLTKGNQQLGSGEWSLIAESIDPSAVRQFIIQYNIAMQKQLAAHPELANDEVALQEVNAALFKEYLPLLQKSEPTIKQPVRWKNALGELNANLDISIADPAKSSSSTNKDIKSLNFDVKLPLNVVTETAKQLNLSEGMDAEKAQKQADKQISGMMTLGQMFQLITIDNNTASLQLRYTPGKVVFNGQEMSEEEFMSRAGRFVH			5.74	6.55				6.18			2.57	5.4
